Experimental data taken from PMC7064531.

Target: hRpn10^322–366 peptide with Y326 phosphorylated (human) (UniProt P55036)
Test: ITC; 25 °C, MicroCal iTC200; E6AP AZUL injected into hRpn10 305-377 (0.0405 mM) or hRpn10 322-366 peptides (0.01 mM) in the cell; 10 mM MOPS pH 6.5, 50 mM NaCl, 5 mM DTT, 10 μM zinc sulfate; one-site fit

E6AP AZUL (amino-terminal zinc-binding domain of ubiquitin E3a ligase), amino acids 24 to 87, sequence (Q05086 24-87): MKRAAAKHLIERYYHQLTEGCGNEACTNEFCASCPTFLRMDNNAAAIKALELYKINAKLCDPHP

## E6AP AZUL (amino-terminal zinc-binding domain of ubiquitin E3a ligase), amino acids 24 to 87 (from UniProt Q05086 24-87) (domain or fragment)
  fold reduction of affinity against unphosphorylated hRpn10 322-366: 10 fold
